Measurements from PMC5314460 (Structure (London, England : 1993), 2017).
Each block holds one binder with its values, some of them ahead of it.

Experiments:
Assay in all cases: pull-down
Enp1 = target: T1, Enp1 (yeast, UniProt P38333 1-483)
T1 sequence (looked up): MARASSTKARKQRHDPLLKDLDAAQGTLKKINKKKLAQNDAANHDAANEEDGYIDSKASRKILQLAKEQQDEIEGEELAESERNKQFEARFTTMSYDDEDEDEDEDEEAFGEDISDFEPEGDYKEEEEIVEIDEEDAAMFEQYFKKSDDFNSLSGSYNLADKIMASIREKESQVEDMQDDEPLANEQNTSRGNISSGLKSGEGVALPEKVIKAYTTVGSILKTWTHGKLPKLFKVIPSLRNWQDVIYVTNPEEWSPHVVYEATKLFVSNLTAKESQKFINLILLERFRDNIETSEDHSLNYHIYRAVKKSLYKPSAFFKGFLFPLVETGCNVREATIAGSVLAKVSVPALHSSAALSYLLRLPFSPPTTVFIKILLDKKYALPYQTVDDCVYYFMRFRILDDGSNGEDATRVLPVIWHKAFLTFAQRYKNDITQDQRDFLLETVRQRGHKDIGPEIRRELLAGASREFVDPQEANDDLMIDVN

[1] = target: T2, Enp1-TPR (residues 154-483) (yeast, UniProt P38333 154-483)
T2 sequence (looked up): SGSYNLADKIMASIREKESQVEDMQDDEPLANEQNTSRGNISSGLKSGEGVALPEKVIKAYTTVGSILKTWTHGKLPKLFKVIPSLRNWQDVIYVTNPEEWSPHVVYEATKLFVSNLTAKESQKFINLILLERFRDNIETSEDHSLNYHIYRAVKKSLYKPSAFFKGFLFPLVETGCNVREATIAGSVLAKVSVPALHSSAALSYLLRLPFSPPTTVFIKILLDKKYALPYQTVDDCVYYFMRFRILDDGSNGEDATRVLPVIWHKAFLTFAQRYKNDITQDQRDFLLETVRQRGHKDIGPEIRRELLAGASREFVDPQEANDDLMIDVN

SUMO-Rps3 = target: T3, SUMO-Rps3 (yeast, UniProt P05750 1-240)
T3 sequence: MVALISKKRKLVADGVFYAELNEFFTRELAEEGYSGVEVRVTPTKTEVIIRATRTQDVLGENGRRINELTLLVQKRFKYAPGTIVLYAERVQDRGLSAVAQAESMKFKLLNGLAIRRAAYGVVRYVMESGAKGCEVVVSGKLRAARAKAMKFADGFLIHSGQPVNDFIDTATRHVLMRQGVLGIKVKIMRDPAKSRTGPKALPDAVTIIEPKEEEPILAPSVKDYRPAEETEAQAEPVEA

binding result (Enp1): binds
binding result [1]: binds
binding result (SUMO-Rps3): binds
B1: Ltv1-M (residues 185-394) (domain or fragment, yeast, UniProt P34078 185-394, looked up)
chain: DDVVVEDISKKTQLQGDNYGEEEKEDDIFAQLLGSGEAKDEDEFEDEFDEWDIDNVENFEDENYVKEMAQFDNIENLEDLENIDYQADVRRFQKDNSILEKHNSDDEFSNAGLDSVNPSEEEDVLGELPSIQDKSKTGKKKRKSRQKKGAMSDVSGFSMSSSAIARTETMTVLDDQYDQIINGYENYEEELEEDEEQNYQPFDMSAERSD

binding result (SUMO-Rps3): binds
B2: Ltv1-N (N-terminal 180 residues) (domain or fragment, yeast, UniProt P34078 1-180, looked up)
chain: MSKKFSSKNSQRYVVVHRPHDDPSFYDTDASAHVLVPVSNPNKTSPEADLRKKDVSSTKPKGRRAHVGEAALYGINFDDSEYDYTQHLKPIGLDPENSIFIASKGNEQKVEKKNIEDLFIEPKYRRDEIEKDDALPVFQRGMAKPEYLLHQQDTTDEIRGFKPDMNPALREVLEALEDEA
